According to patent publication US20250376501A1:

Columns and labels:
Experiment in all cases: Gator BLI, hTSLP mutant from CHO cells against 3H10-biotin
[1] = molecular target: hTSLP-K23A (human) (UniProt Q969D9)
[2] = molecular target: hTSLP-L133A (human) (UniProt Q969D9)
[3] = molecular target: hTSLP-K135A (human) (UniProt Q969D9)
[4] = molecular target: hTSLP-L27A (human) (UniProt Q969D9)
[5] = molecular target: hTSLP-R55A (human) (UniProt Q969D9)
[6] = molecular target: hTSLP-K21A (human) (UniProt Q969D9)
[7] = molecular target: hTSLP-R127A (human) (UniProt Q969D9)
[8] = molecular target: hTSLP-D18A (human) (UniProt Q969D9)
[9] = molecular target: hTSLP-S43A (human) (UniProt Q969D9)
[10] = molecular target: hTSLP-K32A (human) (UniProt Q969D9)
[11] = molecular target: hTSLP-E20A (human) (UniProt Q969D9)
[12] = molecular target: hTSLP-R131A (human) (UniProt Q969D9)
[13] = molecular target: hTSLP-N130A (human) (UniProt Q969D9)
[14] = molecular target: hTSLP-S28A (human) (UniProt Q969D9)
Sequence of hTSLP-S28A (human) (Q969D9 29-159 R127A/R130A): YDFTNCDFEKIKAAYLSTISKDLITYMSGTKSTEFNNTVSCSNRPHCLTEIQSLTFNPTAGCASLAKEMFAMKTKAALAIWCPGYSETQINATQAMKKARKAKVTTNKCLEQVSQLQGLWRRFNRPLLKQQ

Sequence of hTSLP-K32A (human) (Q969D9 29-159 R127A/R130A): as above
Sequence of hTSLP-K21A (human) (Q969D9 29-159 R127A/R130A): as above
Sequence of hTSLP-R55A (human) (Q969D9 29-159 R127A/R130A): as above
Sequence of hTSLP-L27A (human) (Q969D9 29-159 R127A/R130A): as above
Sequence of hTSLP-K135A (human) (Q969D9 29-159 R127A/R130A): as above
Sequence of hTSLP-S43A (human) (Q969D9 29-159 R127A/R130A): as above
Sequence of hTSLP-N130A (human) (Q969D9 29-159 R127A/R130A): as above
Sequence of hTSLP-R127A (human) (Q969D9 29-159 R127A/R130A): as above
Sequence of hTSLP-L133A (human) (Q969D9 29-159 R127A/R130A): as above
Sequence of hTSLP-D18A (human) (Q969D9 29-159 R127A/R130A): as above
Sequence of hTSLP-K23A (human) (Q969D9 29-159 R127A/R130A): as above
Sequence of hTSLP-E20A (human) (Q969D9 29-159 R127A/R130A): as above
Sequence of hTSLP-R131A (human) (Q969D9 29-159 R127A/R130A): as above

B1: 3H10-biotin protein (designed binder)
chain: GSHMDLGKKLLEAAWAGRDDEVRILMANGADVNAGDASGDTPLHLAAFSGHLEIVEVLLKHGADVNAEDLLGMTPLHLAAPFGHLEIVEVLLKHGADVNAAARNNGKTPLHLAAFVGHLEIVEVLLKNGADVNAQDKFGKTAFDISIDNGNEDLAEILQKLNG
modifications: biotin (site not stated)
- Decreased fold in binding affinity compared to wild-type TSLP [1]: 2.4 fold
- Decreased fold in binding affinity compared to wild-type TSLP [2]: 2.05 fold
- Decreased fold in binding affinity compared to wild-type TSLP [3]: 1.7 fold
- Decreased fold in binding affinity compared to wild-type TSLP [4]: 9.3 fold
- Decreased fold in binding affinity compared to wild-type TSLP [5]: 0.5 fold
- Decreased fold in binding affinity compared to wild-type TSLP [6]: 11.9 fold
- Decreased fold in binding affinity compared to wild-type TSLP [7]: 1.8 fold
- Decreased fold in binding affinity compared to wild-type TSLP [8]: 7.9 fold
- Decreased fold in binding affinity compared to wild-type TSLP [9]: 5 fold
- Decreased fold in binding affinity compared to wild-type TSLP [10]: 1.2 fold
- Decreased fold in binding affinity compared to wild-type TSLP [11]: 6.1 fold
- Decreased fold in binding affinity compared to wild-type TSLP [12]: 2.1 fold
- Decreased fold in binding affinity compared to wild-type TSLP [13]: 2.2 fold
- Decreased fold in binding affinity compared to wild-type TSLP [14]: 5.1 fold
